Results reported in patent publication US20230002798A1, “PROCESS FOR THE PREPARATION OF A FERMENTABLE SUGAR COMPOSITION AND THE FERMENTATION THEREOF” (WeissBioTech GmbH, priority 2019, published 2023).

B1: Agl1: oligo-1,6-glucosidase of Bifidobacterium breve UCC2003, amino acid sequence SEQ ID NO:1, expressed in Bacillus subtilis (protein)
chain: MMTTFNRAIIPDAIRTNGATPNPWWSNAVVYQIYPRSFQDTNGDGFGDLKGITSRLDYLADLGVDVLWLSPVYKSPQDDNGYDISDYQDIDPLFGTLDDMDELLAEAHKRGLKVVMDLVVNHTSDEHAWFEASKNKDDEHADWYWWRPARPGTTPGEPGSEPNQWGSYFGGSAWEYCPERGEYYLHQFSKKQPDLNWENPAVRRAVYDMMNWWLDRGIDGFRMDVITLISKRTDANGRLPGEYGSELDDLPVGEEGYSNPNPFCADGPRQDEFLKEMRREVFAGREGFLTVGEAPGITPVRNEHITNPANGELDMLFLFDHVDFDCDGVKWKPLPLDLPGFKRIMAGYQTAVENVGWASLFTGNHDQPRVVSRWGDDSSEESRVRSAKALGLMLHMHRGTPYVYQGEELGMTNAHFTSLDQYRDLESLNAYRQRVEEAKVQSPESMLAGIAARGRDNSRTPMQWDGSAYAGFTAPDAATEPWISVNPNHAEINAAGEFDDPDSVYAFYKKLIALRHNSSIVAAGEWQLIDADDAHVYAFTRTLGNERLLVVVNLSGRTVDLPRESTELIAGGVTEPDIILSTYDAPHTVVSLANRELDPWEAAAVQL
modifications: Bifidobacterium breve UCC2003; ACM89182.1 alpha-glucosidase 1
B2: Gth: oligo-1,6-glucosidase of Parageobacillus thermoglucosidasius, amino acid sequence SEQ ID NO:2, expressed in Bacillus subtilis (protein, listed as Parageobacillus thermoglucosidasius)
chain: MERVWWKEAVVYQIYPRSFYDSNGDGIGDIRGIIAKLDYLKELGVDVVWLSPVYKSPNDDNGYDISDYRDIMDEFGTMADWKTMLEEMHKRGIKLVMDLVVNHTSDEHPWFIESRKSKDNPYRDYYIWRPGKNGKEPNNWESVFSGSAWEYDEMTGEYYLHLFSKKQPDLNWENPKVRREVYEMMKFWLDKGVDGFRMDVINMISKVPELPDGEPQSGKKYASGSRYYMNGPRVHEFLQEMNREVLSKYDIMTVGETPGVTPKEGILYTDPSRRELNMVFQFEHMDLDSGPGGKWDIRPWSLADLKKTMTKWQKELEGKGWNSLYLNNHDQPRAVSRFGDDGKYRVESAKMLATFLHMMQGTPYIYQGEEIGMTNVRFPSIEDYRDIETLNMYKERVEEYGEDPQEVMEKIYYKGRDNARTPMQWDDSENAGFTAGTPWIPVNPNYKEINVKAALEDPNSVFHYYKKLIQLRKQHDIIVYGTYDLILEDDPYIYAYTRTLGNEQLIVITNFSEKTPVFRLPDHIIYKTKELLISNYDVDEAEELKEIRLRPWEARVYKIRLP
modifications: WP_042386239.1 alpha-glucosidase

Tests used:
[1] = SSF of maltodextrins with added panose, 24 h (Example 1); set-up: species or system Yeast (Deltaferm® AL-18); conditions: SSF 24 h; for panose concentration reduced by: 20 g/L panose added; for ethanol concentration increase by % compared to the negative control / ethanol concentration increase compared to the negative control: 300 g/L maltodextrin + 20 g/L panose, enzyme 187.5 kU per ton; for ethanol concentration increase compared to the negative control: glucoamylase 40 g/t, 30° C., pH 4.8
Procedure: (§1) Quantification of ethanol yield Ethanol was quantified via HPLC. Samples were taken at the end of the SSF or during SSF at set time points. Samples were centrifuged for 1 min at 17,000 xg and sterile filtered (0.2 μm). The samples were frozen at −80° C. prior to measurements. Ethanol was determined with an Aminex 87C column (Bio-Rad Laboratories, Inc., US) on a Shimadzu HPLC system.
(§2) Residual sugars were quantified via HPLC. Samples were taken at the end of the SSF or during SSF at set time points. Samples were centrifuged for 1 min at 17 000 xg and sterile filtered (0.2 μm). The samples were frozen at −80° C. prior to measurements. Residual sugars were determined with a Zorbax NH2 column (Agilent Technologies, Inc., US) on an Agilent 1200 HPLC system.
For simultaneous saccharification and fermentation (abbreviated SSF), the oligo-1,6-glucosidases—either Agl1 or Gth—were used as crude Bacillus extract. Glucidex® Maltodextrin 12 (Roquette, FR) was dissolved in SSF-medium (5 g/L yeast extract, 5 g/L peptone, 1 g/L K2HIPO4, 0.5 g/L Mg2SO4 in 50 mM citrate buffer, pH 4.8) at 300 g/L. Panose, isomaltose, isomaltotriose, maltose, maltotriose, or trehalose was added at 20 g/L. As a positive control, 20 g/L glucose was added instead of the respective sugar. The SSF medium containing starch hydrolysate (maltodextrins) and sugars was sterile filtered (0.2 μm). Yeast (Deltaferm® AL-18, WeissBioTech GmbH, Ascheberg, Germany) was grown in YINaC medium (50 g/L dextrose, 5 g/L yeast extract, 5 g/L peptone, 1 g/L K2HPO4, 0.5 g/L Mg2SO4*7H2O, 2 g/L NH4Cl in 50 mM sodium citrate, pH 4.8) for 2 days at 37° C. and harvested by centrifugation for 15 min at 5100 rpm and 8° C. Pelleted yeast was added to the SSF-medium at a final concentration of 6 g/L. Glucoamylase (Deltazym® GA L-E5, WeissBioTech GmbH, Ascheberg, Germany) was added at 40 g per ton of dry starch equivalent. The enzyme product Agl1 or Gth was added up to a final concentration of 187.5 kU per ton of dry starch equivalent. For the SSF with trehalose, Agl1 or Gth was added at 937.5 kU per ton of dry starch equivalent. As a negative control, an SSF as described above was run without oligo-1,6-glucosidase/enzyme product. The SSF was performed at 30° C. without stirring or shaking for 24 h.

[2] = Industry-relevant SSF of maltodextrins with added panose, 72 h (Example 2); set-up: species or system Yeast (Deltaferm® AL-18); conditions: SSF 72 h, maltodextrin + 20 g/L panose, glucoamylase 400 g/t, enzyme 187.5 kU per ton
Procedure: as §1
For the SSF, the enzyme product was used as crude Bacillus extract. Glucidex® Maltodextrin 12 was dissolved in SSF medium (5 g/L yeast extract, 5 g/L peptone, 1 g/L K2HIPO4, 0.5 g/L Mg2SO4 in 50 mM citrate buffer, pH 4.8) at 300 g/L. Panose was added at 20 g/L. As a positive control, 20 g/L glucose was added. The SSF medium containing starch and sugars was sterile filtered (0.2 μm). Yeast (Deltaferm® AL-18, WeissBioTech GmbH, Ascheberg, Germany) was grown in YINaC medium (50 g/L dextrose, 5 g/L yeast extract, 5 g/L peptone, 1 g/L K2HPO4, 0.5 g/L Mg2SO4*7H2O, 2 g/L NH4Cl in 50 mM sodium citrate, pH 4.8) for 2 days at 37° C. and harvested by centrifugation for 15 min at 5100 rpm and 8° C. Pelleted yeast was added to the SSF at a final concentration of 6 g/L. Glucoamylase (Deltazym® GA L-E5, WeissBioTech GmbH, Ascheberg, Germany) was added at 400 g per ton of dry starch equivalent. The enzyme product Agl1 or Gth was added to a final concentration of 187.5 kU per ton of dry starch equivalent. As a negative control, no oligo-1,6-glucosidase/enzyme product was added. The SSF was performed at 30° C. without stirring or shaking for 72 h.

[3] = SSF of commercial liquefied starch, 72 h (Example 3); set-up: species or system Yeast (Deltaferm® AL-18); conditions: SSF 72 h, commercial liquefied starch 300 g/L, glucoamylase 200 g/t, enzyme 187.5 kU per ton
Procedure: as §1, §2
Liquefied starch was analysed prior to use on a Zorbax NH2 column (Agilent Technologies, Inc., US) for analysis of mono-, di- and trisaccharide type and content, and on an Aminex 42A column (Bio-Rad Laboratories, Inc., US) for analysis of degree of polymerisation (DP) detecting DP1-DP6 content. IPLC was performed on a Shimadzu IPLC system.
For SSF, the enzyme product was used as crude Bacillus extract. Acidified liquefied starch (pH 2.0) from a commercial plant, containing no detectable amounts of panose, isomaltose, isomaltotriose or trehalose, was brought to pH 4.8. SSF medium components (5 g/L yeast extract, 5 g/L peptone, 1 g/L K2HIPO4, 0.5 g/L Mg2SO4 in 50 mM citrate buffer, pH 4.8) were added to liquefied starch (300 g/L). The SSF medium containing starch was sterile filtered (0.2 μm). Yeast (Deltaferm® AL-18, WeissBioTech GmbH, Ascheberg, Germany) was grown in YINaC medium (50 g/L dextrose, 5 g/L yeast extract, 5 g/L peptone, 1 g/L K2HPO4, 0.5 g/L Mg2SO4*7H2O, 2 g/L NH4Cl in 50 mM sodium citrate, pH 4.8) for 2 days at 37° C. and harvested by centrifugation for 15 min at 5100 rpm and 8° C. Pelleted yeast was added to the SSF at a final concentration of 6 g/L. Glucoamylase (Deltazym® GA L-E10, WeissBioTech GmbH, Ascheberg, Germany) was added at 200 g per ton of dry starch equivalent. The enzyme product Agl1 or Gth was added to a final concentration of 187.5 kU per ton of dry starch equivalent. As control, no oligo-1,6-glucosidase/enzyme product was added. The SSF was performed at 30° C. without stirring or shaking for 72 h.

[4] = Temperature range of enzyme activity; assay type: biochemical; conditions: 30° C.-80° C. investigated
Procedure: The temperature range was investigated from 30° C.-80° C. by incubating the enzymes and measuring their activity at the respective temperature.

[5] = Lab-scale SSF run with 32% dextrins supplemented with panose; set-up: species or system alcohol yeasts (Deltaferm® AL-18); conditions: 30° C., pH 4.8, 72 h, glucoamylase 415 g/t, yeast 6 g/L

| Molecule | panose concentration reduced by [1] | ethanol concentration increase by % compared to the negative control [1] | ethanol concentration increase compared to the negative control [1] | ethanol concentration increase by % compared to the negative control [2] | ethanol concentration increase compared to the negative control [2] | ethanol concentration increase by % compared to the negative control [3] | ethanol concentration increase compared to the negative control [3] | temperature range [4] | increase of ethanol yield [5] |
| --- | --- | --- | --- | --- | --- | --- | --- | --- | --- |
| B1 | 96% | 92% | 1.01 percentage points (v/v) | 8% | 1.16 percentage points (v/v) | 2% | 0.30 percentage points (v/v) | 30-50 °C | 2% |
| B2 | 96% | 85% | 0.94 percentage points (v/v) | 15% | 1.77 percentage points (v/v) | 4% | 0.47 percentage points (v/v) | 30-70 °C | 2% |
